Results reported in PMC2233751 (The Journal of General Physiology, 2001).

Target: actin filaments (UniProt P68135 1-377)
Assay: co-sedimentation

Kd: 10 µM
B1: myosin V 1IQ monomer (domain or fragment)
chain: MAASELYTKYARVWIPDPEEVWKSAELLKDYKPGDKVLQLRLEEGKDLEYCLDPKTKELPPLRNPDILVGENDLTALSYLHEPAVLHNLKVRFIDSKLIYTYCGIVLVAINPYEQLPIYGEDIINAYSGQNMGDMDPHIFAVAEEAYKQMARDERNQSIIVSGESGAGKTVSAKYAMRYFATVSGSASEANVEEKVLASNPIMESIGNAKTTRNDNSSRFGKYIEIGFDKRYRIIGANMRTYLLEKSRVVFQAEEERNYHIFYQLCASAALPEFKTLRLGNANYFHYTKQGGSPVIDGIDDAKEMVNTRQACTLLGISDSYQMGIFRILAGILHLGNVEFASRDSDSCAIPPKHDPLTIFCDLMGVDYEEMAHWLCHRKLATATETYIKPISKLHAINARDALAKHIYANLFNWIVDHVNKALHSTVKQHSFIGVLDIYGFETFEINSFEQFCINYANEKLQQQFNMHVFKLEQEEYMKEQIPWTLIDFYDNQPCINLIEAKMGVLDLLDEECKMPKGSDDTWAQKLYNTHLNKCALFEKPRLSNKAFIIKHFADKVEYQCEGFLEKNKDTVYEEQIKVLKSSKKFKLLPELFQDEEKAISPTSATPSGRVPLSRTPVKPAKARPGQTSKEHKKTVGHQFRNSLHLLMETLNATTPHYVRCIKPNDFKFPFTFDEKRAVQQLRACGVLETIRISAAGFPSRWTYQEFFSRYRVLMKQKDVLSDRKQTCKNVLEKLILDKDKYQFGKTKIFFRAGQVAYLEKIRADKLRAACIRIQKTIRGWLMRKKYMRMRR
